Laboratory results as given in US20240401063, “Aptamer for DKK1 and Use Thereof” (APTACURE THERAPEUTICS LIMITED, published 2024).

How the values were obtained:
[1] = target: T1, DKK1 expressed in Wnt reporter cells (UniProt O94907 SEQ:32-266); assay: cell_activity; TOPFlash Wnt3a luciferase in HEK293T; settings: tags: DKK1 construct co-transfected in HEK293T
T1 sequence: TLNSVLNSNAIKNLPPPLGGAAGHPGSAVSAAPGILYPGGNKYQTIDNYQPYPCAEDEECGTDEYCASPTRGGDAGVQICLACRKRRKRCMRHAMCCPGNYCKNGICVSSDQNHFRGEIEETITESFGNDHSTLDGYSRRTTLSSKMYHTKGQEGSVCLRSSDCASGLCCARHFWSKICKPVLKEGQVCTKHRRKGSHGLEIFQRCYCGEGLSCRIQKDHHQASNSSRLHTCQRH
Procedure: TCF-wnt induced luciferase activity assay: HEK293T cells were co-transfected with corresponding plasmids, including TOPFlash, FOPFlash, Wnt3a, and DKK1 constructs. An equal amount of the carrier was used for each time of transfection. The culture medium was replaced 24 hours after the transfection. The cells were treated with conditional culture medium containing 1 μM corresponding aptamer candidates. In order to determine inhibition effect, the cells are treated with aptamer candidates having gradient concentrations. 24 hours after treatment, the cells were lysed with 100 μl of lysis buffer, and 20 μl was taken for analysis. It was calculated according to the protocol (dual luciferase reporter gene assay, Promega).

[2] = target: T2, DKK1 (Dickkopf-1), full-length (Homo sapiens, UniProt O94907 SEQ:32-266); assay: ELONA; room temperature; settings: tags: His6, label: biotin
T2 sequence: T1 sequence
Procedure: (§1) Enzyme linked oligonucleotide assay (ELONA): 160 ng DKK1 per well and negative target were coated in a 96-well microtiter plate by incubating at 4° C. overnight through hydrophobic interaction. Non-binding sites in wells were blocked with bull serum albumin (BSA) at room temperature for 1 hour, and then washed with DNA-binding buffer 4 times for 5 minutes each. The biotinylated aptamer candidates/RS with an appropriate concentration were added to each well and incubated at room temperature for 45 minutes with continuous gentle shaking. After binding, the plate was washed with washing buffer 4 times for 5 minutes each to remove non-specific and weakly binding sequences. 100 μl streptavidin-horseradish peroxidase (HRP) (1:10000 dilute into PBST+0.1% BSA) was added to each well, and incubated for 30 minutes, and washed for 4 times with the binding buffer. 50 μl 3,3′,5,5′-tetramethylbenzidine (TMB) as a HRP substrate was added to each well and incubated for 20 minutes. 50 μl 2M H₂SO₄ was added to terminate the reaction. The absorbance at 450 nm was measured with a microplate reader (Molecular Device i3x). Data was analyzed with Origin software. A binding curve was generated and KD was calculated with a non-linear curve fitting model logistic.
Aptamer candidates with significant specificity and Candidate 3 as a negative control were used to determine the binding affinity against DKK1. Candidates 1, 2, 4, and 14 had concentrations of (0, 62.5 nM, 125 nM, 250 nM, 500 nM, 1000 nM, 2000 nM, and 4000 nM), Candidates 7, 10, 15, and 16 had concentrations of (0, 23.44 nM, 46.86 nM, 93.75 nM, 187.5 nM, 375 nM, 750 nM, and 1500 nM), and other candidates had concentrations of (0, 0.18 nM, 0.74 nM, 2.96 nM, 11.84 nM, 47.35 nM, 189.39 nM, and 757.58 nM). […] Six candidates (aptdkk-5, 13, 20, 19, 6, and 1) were rich in G. The other five sequences (aptdkk-9, 18, 12, 17, and 8) were not rich in G.

[3] = target: T2, DKK1 (Dickkopf-1), full-length; assay: ELONA; specificity High at 1 uM; Kd not given; settings: tags: His6, label: biotin
Procedure: as §1
The specificity of 1 μM of each adapter/RS against DKK-1 was determined for 20 potential sequences with the highest occurrence rate (Table 4) by ELONA and the absorbance at 450 nm was detected.

[4] = target: T2, DKK1 (Dickkopf-1), full-length; assay: ELONA; high affinity; Kd only in FIG. 9; settings: tags: His6; label: biotin
Procedure: as §1
Aptamer candidates with significant specificity (apt5-1-44, apt5-1-41, apt5-1-38, and apt5-1-35) and the original aptdkk5 as a positive control were used to determine the binding affinity against DKK1. The original aptdkk5 and apt5-1-44 had concentrations of (0.15625 nM, 0.625 nM, 1.25 nM, 2.5 nM, 5 nM, 10 nM, 50 nM, and 100 nM), apt5-1-41, apt5-1-38, and apt5-1-35 had concentrations of (0, 1.5625 nM, 3.125 nM, 6.25 nM, 12.5 nM, 25 nM, and 50 nM).

[5] = target: T2, DKK1 (Dickkopf-1), full-length; assay: ELONA; 1 nM: no or slight difference from aptdkk5; settings: tags: His6; label: biotin
Procedure: as §1
The specificity of 100 nM/i nM of each aptamer/RS against DKK-1 was determined for 24 truncated sequences of aptdkk5 and original aptdkk5 (Table 6) by ELONA and the absorbance at 450 nm was detected. When the concentration was 100 nM, there was no significant difference or slight difference in the absorbance between apt5-1-38, apt5-1-35, apt5-1-62, or apt5-1-59 and the original aptdkk5 (FIG. 8a). When the concentration was 1 nM, there was no significant difference or slight difference in the absorbance between apt5-1-50, apt5-1-47, apt5-1-44, apt5-1-41, apt5-1-38, apt5-1-35, apt5-1-65, apt5-1-62, apt5-1-59, or apt5-1-53 and the original aptdkk5 (FIG. 8b). After the specificity and length of these aptamers were considered, apt5-1-44, apt5-1-41, apt5-1-38, and apt5-1-35 were selected to determine the binding affinity against DKK1.

[6] = target: T2, DKK1 (Dickkopf-1), full-length; assay: ELONA; 100 nM and 1 nM: no or slight difference from aptdkk5; settings: tags: His6; label: biotin
Procedure: as §1, with “100 μl streptavidin-horseradish peroxidase (HRP) (1:10000 dilute into PBST+0.1% BSA) was added to each well, and incubated for 30 minutes, and washed for 4 times with the binding buffer. 50 μl 3,3′,5,5′-tetramethylbenzidine (TMB) as a HRP substrate was added to each well and incubated for 20 minutes. 50 μl 2M H₂SO₄ was added to terminate the reaction.” left out
The specificity of 100 nM/i nM of each aptamer/RS against DKK-1 was determined for 24 truncated sequences of aptdkk5 and original aptdkk5 (Table 6) by ELONA and the absorbance at 450 nm was detected. When the concentration was 100 nM, there was no significant difference or slight difference in the absorbance between apt5-1-38, apt5-1-35, apt5-1-62, or apt5-1-59 and the original aptdkk5 (FIG. 8a). […]

[7] = label: biotin, G-rich, predicted G4

B1: Aptdkk-5 (ssDNA)
DNA: CGTACGGTCGACGCTAGCTGGTGGTTGGGGTGGGTGGTGGTTGTTCGTGGCCGGGATCCGAGCTCCACGTG
IC50 [1, 7]: 754 nM | Kd ([2]; G-rich, predicted G4): 0.3 nM

B2: Aptdkk-13 (ssDNA)
DNA: CGTACGGTCGACGCTAGCTGGTGTGGGGGTGGGTGGTGGGTTGTATCGTTTGAGGATCCGAGCTCCACGTG
Kd ([2]; G-rich, predicted G4): 1.1 nM

B3: Aptdkk-8 (ssDNA)
DNA: CGTACGGTCGACGCTAGCTGCCACCCCTGTTTTCCACATTTTCCTCGACCGCGGGATCCGAGCTCCACGTG
Kd [2]: 104 nM

B4: Aptdkk-20 (ssDNA)
DNA: CGTACGGTCGACGCTAGCCGTAGGGAGGTGGGTGGGTATTTCTCTCTGTCGTGGGATCCGAGCTCCACGTG
IC50 [1, 7]: 1500 nM | Kd ([2]; G-rich, predicted G4): 6.6 nM

B5: Aptdkk-19 (ssDNA)
DNA: CGTACGGTCGACGCTAGCATAGGTTGGGTAGGTTGGTTGCTTTTTTTGTCGCGGGATCCGAGCTCCACGTG
Kd ([2]; G-rich, predicted G4): 9.7 nM

B6: Aptdkk-2 (ssDNA)
DNA: CGTACGGTCGACGCTAGCTGGTGTTGGGGTGGGTTGGTGGGTATTTTGGCGGTGGATCCGAGCTCCACGTG
binding result ([3]; G-rich, predicted G4): binds

B7: Aptdkk-14 (ssDNA)
DNA: CGTACGGTCGACGCTAGCCTGTGCAGTTGGTTGGTTATGGTTGGGACTGTCAGGATCCGAGCTCCACGTG
binding result ([3]; G-rich, predicted G4): binds

B8: Aptdkk-4 (ssDNA)
DNA: CGTACGGTCGACGCTAGCTGCACGCTTTTCCCTCCTTTTCTCGTCTGACCGCGGGATCCGAGCTCCACGTG
binding result [3]: binds

B9: Aptdkk-7 (ssDNA)
DNA: CGTACGGTCGACGCTAGCAGCCCCCTTCCTTTCTTCCTCGACCTCCCTCCGCAGGATCCGAGCTCCACGTG
binding result [3]: binds

B10: Aptdkk-10 (ssDNA)
DNA: CGTACGGTCGACGCTAGCACTCTCCACGTTTTTCCACCTCCTTCCTCCTTTGCGGATCCGAGCTCCACGTG
binding result [3]: binds

B11: Aptdkk-11 (ssDNA)
DNA: CGTACGGTCGACGCTAGCCATCCAGCTCCCTTTATTCCCTCTGTACCCTCCTGGGATCCGAGCTCCACGTG
binding result [3]: binds

B12: Aptdkk-15 (ssDNA)
DNA: CGTACGGTCGACGCTAGCACGTTCAGATACCTTTTTTCCCCTTTGTTCTGCCGGGATCCGAGCTCCACGTG
binding result [3]: binds

B13: Aptdkk-16 (ssDNA)
DNA: CGTACGGTCGACGCTAGCTACACGCCATCGGTGCCCTTTTCTCTTCTTGTCTGGGATCCGAGCTCCACGTG
binding result [3]: binds

B14: Aptdkk-6 (ssDNA)
DNA: CGTACGGTCGACGCTAGCCCGGTTGCAATGGTTGGGGTGGTTGGTTTTGCATGGGATCCGAGCTCCACGTG
Kd ([2]; G-rich, predicted G4): 29.4 nM

CGTACGGTCGACGCTAGCTGGTGGTTGGGGTGGGTGGTGGTTGT (ssDNA) [Apt5-1-44]
binding result [4]: binds

CGTACGGTCGACGCTAGCTGGTGGTTGGGGTGGGTGGTGGT (ssDNA) [Apt5-1-41]
binding result [4]: binds

CGTACGGTCGACGCTAGCTGGTGGTTGGGGTGGGT (ssDNA) [Apt5-1-35]
binding result [4]: binds

CGTACGGTCGACGCTAGCTGGTGGTTGGGGTGGGTGGTGGTTGTTCGTGG (ssDNA) [Apt5-1-50]
binding result [5]: binds

CGTACGGTCGACGCTAGCTGGTGGTTGGGGTGGGTGGTGGTTGTTCG (ssDNA) [Apt5-1-47]
binding result [5]: binds

B15: Apt5-1-65 (ssDNA)
DNA: CGTACGGTCGACGCTAGCTGGTGGTTGGGGTGGGTGGTGGTTGTTCGTGGCCGCGTACGGTCGAC
binding result [5]: binds

B16: Apt5-1-62 (ssDNA)
DNA: CGTACGGTCGACGCTAGCTGGTGGTTGGGGTGGGTGGTGGTTGTTCGTGGCCGCGTACGGTC
binding result [6]: binds

B17: Apt5-1-53 (ssDNA)
DNA: CGTACGGTCGACGCTAGCTGGTGGTTGGGGTGGGTGGTGGTTGTTCGTGGCCG
binding result [5]: binds

B18: Aptdkk-1 (ssDNA)
DNA: CGTACGGTCGACGCTAGCTGTGGTTATGGGGTTGGTGGGTGGGTTCTTACGGAGGATCCGAGCTCCACGTG
Kd ([2]; G-rich, predicted G4): 344 nM

B19: Aptdkk-9 (ssDNA)
DNA: CGTACGGTCGACGCTAGCTACACCCCTTCCTGTTCTATTCTTCCTGCCTTGCGGGATCCGAGCTCCACGTG
Kd [2]: 4.2 nM

B20: Aptdkk-18 (ssDNA)
DNA: CGTACGGTCGACGCTAGCTCCACCCAATTCTCTTCCCGTCTTTCCTGCACATGGGATCCGAGCTCCACGTG
Kd [2]: 8.2 nM

B21: Aptdkk-12 (ssDNA)
DNA: CGTACGGTCGACGCTAGCTCCCCTCATAATCCGACTTTTTCCCTCCCCCTCCCGGATCCGAGCTCCACGTG
Kd [2]: 38.2 nM

CGTACGGTCGACGCTAGCTGGTGGTTGGGGTGGGTGGT (ssDNA, O-methyl (positions not stated); 3' inverted dT) [dkk5s-OM-indT]
IC50 [1]: 383 nM

B22: Aptdkk-17 (ssDNA)
DNA: CGTACGGTCGACGCTAGCTACTTCTCCACGTCTCTTTCCCTGTCCCCTTCGCAGGATCCGAGCTCCACGTG
Kd [2]: 50.4 nM
